Test results as given in paper PMC6312871 (Heliyon, 2018).
Where “and” joins values, the source holds several entries; their conditions need not be identical. Equal values may be shown once. Values belong to the molecule of their own block, whether it stands above or below them.

Experiments:
[1] = biological target: Photosystem II (monomer, core complex) (Prochlorococcus marinus MIT9313 (endogenous in thylakoid membranes)) (UniProt Q7V6I0); experiment: native gel or EMSA
[2] = biological target: Photosystem I (monomer) (Prochlorococcus marinus MIT9313 (endogenous in thylakoid membranes)) (UniProt Q7V510); experiment: sucrose gradient centrifugation
[3] = biological target: Photosystem I (monomer) (Prochlorococcus marinus MIT9313 (endogenous in thylakoid membranes)) (UniProt Q7V510); experiment: native gel or EMSA
[4] = biological target: Photosystem II (monomer, core complex) (Prochlorococcus marinus MIT9313 (endogenous in thylakoid membranes)) (UniProt Q7V6I0); experiment: native gel or EMSA; remark: listed apart in the source
[5] = biological target: the molecule itself; experiment: native gel or EMSA

Photosystem II (monomer, core complex) (Prochlorococcus marinus MIT9313 (endogenous in thylakoid membranes)), sequence (Q7V6I0 whole entry, looked up, one chain of several): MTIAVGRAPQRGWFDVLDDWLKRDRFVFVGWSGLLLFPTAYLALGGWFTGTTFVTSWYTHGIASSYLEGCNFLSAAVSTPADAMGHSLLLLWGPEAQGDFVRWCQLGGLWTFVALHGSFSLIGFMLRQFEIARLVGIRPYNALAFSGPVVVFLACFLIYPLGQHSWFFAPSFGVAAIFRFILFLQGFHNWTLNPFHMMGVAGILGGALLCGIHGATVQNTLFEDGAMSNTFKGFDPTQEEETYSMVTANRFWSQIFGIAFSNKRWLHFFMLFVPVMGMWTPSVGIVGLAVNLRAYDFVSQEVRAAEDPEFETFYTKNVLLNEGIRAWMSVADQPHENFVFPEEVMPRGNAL

stoichiometry N [1]: 2
Molecule: Photosystem II (monomer, core complex) (from UniProt Q7V6I0 1-351; Q7V4Q1 1-49; Q7V4P9 1-65)

stoichiometry N [2]: 3 | stoichiometry N [3]: 3
Molecule: Photosystem I (monomer) (from UniProt Q7V510 1-776; Q7V511 1-749; Q7V8Y4 1-68) (complex)

stoichiometry N (PcbB per PSII dimer) [4]: 8
B1: light-harvesting antenna protein PcbB (divinyl chlorophyll a/b-binding protein) (natural protein, UniProt Q7V6U4 1-350, looked up)
chain: MQTYGNPNPTYGWWAGNAGTTNRSGKFLAAHIAHTGLMAFWAGSFTLFELSRYDPSVPMGHQPLVALPHLATLGIGVGDGGVITDTYPIVVTAVLHLVLSMVYAAGGLMHSLLFNGDIGEMGVKWARKFDFKWDDPDKLTFILGHHLFLLGLGNVQFVEWAKYYGLYDNAEGVVRTVVPNLNIGMVWNAQFNFLAINSLEDVMGGHAFLALFMMSGGLWHIVTKQAGEYTTFKGKGILSAEAQLSWALAGVGWMALVAAFWCASNTTIYPDTFFGEVLDLKFSISPYWVDTANLPEGTYTSRAWLTNIHYYLGFFYIQGHLWHALRALGFDFKRVSNAIGNADSATITLN
stoichiometry N [5]: 2 and 3 and 4
